According to IntAct's records for PubMed 29039417:

B1: BBSome complex member BBS2 (Homo sapiens), Q9BXC9 (parent)
chain: MLLPVFTLKLRHKISPRMVAIGRYDGTHPCLAAATQTGKVFIHNPHTRNQHVSASRVFQSPLESDVSLLSINQAVSCLTAGVLNPELGYDALLVGTQTNLLAYDVYNNSDLFYREVADGANAIVLGTLGDISSPLAIIGGNCALQGFNHEGSDLFWTVTGDNVNSLALCDFDGDGKKELLVGSEDFDIRVFKEDEIVAEMTETEIVTSLCPMYGSRFGYALSNGTVGVYDKTSRYWRIKSKNHAMSIHAFDLNSDGVNELITGWSNGKVDARSDRTGEVIFKDNFSSAIAGVVEGDYRMDGHIQLICCSVDGEIRGYLPGTAEMRGNLMDTSAEQDLIRELSQKKQNLLLELRNYEENAKAELASPLNEADGHRGIIPANTRLHTTLSVSLGNETQTAHTELRISTSNDTIIRAVLIFAEGIFTGESHVVHPSIHNLSSSICIPIVPPKDVPVDLHLKAFVGYRSSTQFHVFESTRQLPRFSMYALTSLDPASEPISYVNFTIAERAQRVVVWLGQNFLLPEDTHIQNAPFQVCFTSLRNGGHLHIKIKLSGEITINTDDIDLAGDIIQSMASFFAIEDLQVEADFPVYFEELRKVLVKVDEYHSVHQKLSADMADHSNLIRSLLVGAEDARLMRDMKTMKSRYMELYDLNRDLLNGYKIRCNNHTELLGNLKAVNQAIQRAGRLRVGKPKNQVITACRDAIRSNNINTLFKIMRVGTASS
partner: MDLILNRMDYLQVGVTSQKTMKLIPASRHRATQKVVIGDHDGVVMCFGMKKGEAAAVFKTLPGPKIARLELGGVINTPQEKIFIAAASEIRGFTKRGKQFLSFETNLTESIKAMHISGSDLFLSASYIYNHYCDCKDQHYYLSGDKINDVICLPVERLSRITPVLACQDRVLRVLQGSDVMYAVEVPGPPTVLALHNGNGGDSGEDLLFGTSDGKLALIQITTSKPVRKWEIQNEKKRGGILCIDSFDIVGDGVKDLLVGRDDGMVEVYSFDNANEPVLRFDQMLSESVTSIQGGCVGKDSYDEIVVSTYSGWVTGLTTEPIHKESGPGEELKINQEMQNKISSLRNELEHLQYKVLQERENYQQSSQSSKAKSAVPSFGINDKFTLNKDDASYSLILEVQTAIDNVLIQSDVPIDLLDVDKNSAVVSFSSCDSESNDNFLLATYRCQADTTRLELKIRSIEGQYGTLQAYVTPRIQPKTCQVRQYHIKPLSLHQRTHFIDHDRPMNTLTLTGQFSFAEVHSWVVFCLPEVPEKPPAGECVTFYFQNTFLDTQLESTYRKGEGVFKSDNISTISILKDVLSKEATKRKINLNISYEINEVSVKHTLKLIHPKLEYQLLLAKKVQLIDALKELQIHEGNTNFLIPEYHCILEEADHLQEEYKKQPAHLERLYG

Variants of: B1
Settings: with BBS7, Q8IWZ6-2

Row | Variant | effect of a mutation on the interaction
1 | M483E | with no effect
2 | M483K | disrupting interaction strength
3 | Y484A | disrupting interaction strength
4 | Y484E | with no effect
5 | Y484K | with no effect
6 | Y484Q | disrupting interaction strength
7 | Y484S | disrupting interaction strength
8 | A485E | with no effect
9 | A485K | with no effect
10 | A485S | disrupting interaction strength
11 | L486A | with no effect
12 | L486E | with no effect
13 | L486K | with no effect
14 | T487A | with no effect
15 | T487E | with no effect
16 | T487K | with no effect
17 | T487P | disrupting interaction strength
18 | T487R | disrupting interaction strength
19 | S488A | with no effect
20 | S488E | with no effect
21 | S488K | with no effect
22 | S488R | disrupting interaction strength
23 | L489A | with no effect
24 | L489E | with no effect
25 | L489K | with no effect

Row | Variant | effect of a mutation on the interaction
26 | D490A | with no effect
27 | D490E | with no effect
28 | D490K | with no effect
29 | P491A | with no effect
30 | P491E | with no effect
31 | P491K | with no effect
32 | A492E | with no effect
33 | A492K | with no effect
34 | S493A | with no effect
35 | S493E | with no effect
36 | S493K | with no effect
37 | S493N | disrupting interaction strength
38 | E494A | with no effect
39 | E494K | with no effect
40 | P495A | with no effect
41 | P495E | with no effect
42 | P495K | with no effect
43 | I496A | with no effect
44 | I496E | with no effect
45 | I496K | with no effect
46 | S497A | with no effect
47 | S497E | with no effect
48 | S497K | with no effect
49 | Y498A | with no effect
50 | Y498E | with no effect

Row | Variant | effect of a mutation on the interaction
51 | Y498K | with no effect
52 | V499A | with no effect
53 | V499E | disrupting interaction strength
54 | V499K | disrupting interaction strength
55 | V499R | disrupting interaction strength
56 | N500A | with no effect
57 | N500E | with no effect
58 | N500K | with no effect
59 | F501A | with no effect
60 | F501E | disrupting interaction strength
61 | F501K | disrupting interaction strength
62 | F501S | disrupting interaction strength
63 | T502A | with no effect
64 | T502E | with no effect
65 | T502K | with no effect
66 | I503A | with no effect
67 | I503E | with no effect
68 | I503K | disrupting interaction strength
69 | A504E | with no effect
70 | A504K | with no effect
71 | A504S | disrupting interaction strength
72 | E505A | with no effect
73 | E505K | with no effect
74 | R506A | disrupting interaction strength
75 | R506E | with no effect

Row | Variant | effect of a mutation on the interaction
76 | R506K | with no effect
77 | A507E | with no effect
78 | A507K | with no effect
79 | Q508A | with no effect
80 | Q508E | with no effect
81 | Q508K | with no effect
82 | R509A | with no effect
83 | R509E | with no effect
84 | R509K | with no effect
85 | V510A | with no effect
86 | V510E | with no effect
87 | V510K | disrupting interaction strength
88 | V511A | with no effect
89 | V511E | with no effect
90 | V511K | with no effect
91 | V512A | with no effect
92 | V512E | with no effect
93 | V512K | with no effect
94 | W513A | disrupting interaction strength
95 | W513E | disrupting interaction strength
96 | W513G | disrupting interaction strength
97 | W513K | disrupting interaction strength
98 | W513R | disrupting interaction strength
99 | L514A | with no effect
100 | L514E | with no effect

Row | Variant | effect of a mutation on the interaction
101 | L514K | with no effect
102 | G515A | with no effect
103 | G515E | with no effect
104 | G515K | with no effect
105 | Q516A | with no effect
106 | Q516E | with no effect
107 | Q516K | with no effect
108 | N517A | with no effect
109 | N517E | with no effect
110 | N517K | disrupting interaction strength
111 | F518A | with no effect
112 | F518E | with no effect
113 | F518K | with no effect
114 | F518L | disrupting interaction strength
115 | L519A | with no effect
116 | L519E | disrupting interaction strength
117 | L519K | with no effect
118 | L520A | with no effect
119 | L520E | with no effect
120 | L520K | with no effect
121 | P521A | with no effect
122 | P521E | with no effect
123 | P521K | with no effect
124 | E522A | with no effect
125 | E522K | with no effect

Row | Variant | effect of a mutation on the interaction
126 | D523A | with no effect
127 | D523E | with no effect
128 | D523K | with no effect
129 | T524A | with no effect
130 | T524E | with no effect
131 | T524K | with no effect
132 | H525A | with no effect
133 | H525E | with no effect
134 | H525K | with no effect
135 | I526A | with no effect
136 | I526E | with no effect
137 | I526K | with no effect
138 | Q527A | with no effect
139 | Q527E | with no effect
140 | Q527K | with no effect
141 | N528A | with no effect
142 | N528E | with no effect
143 | N528K | with no effect
144 | A529E | with no effect
145 | A529K | with no effect
146 | P530A | with no effect
147 | P530E | with no effect
148 | P530K | with no effect
149 | F531A | with no effect
150 | F531E | with no effect

Row | Variant | effect of a mutation on the interaction
151 | F531K | with no effect
152 | Q532A | disrupting interaction strength
153 | Q532E | with no effect
154 | Q532K | with no effect
155 | V533A | with no effect
156 | V533E | disrupting interaction strength
157 | V533K | with no effect
158 | C534A | with no effect
159 | C534E | with no effect
160 | C534K | with no effect
161 | F535A | with no effect
162 | F535E | with no effect
163 | F535K | disrupting interaction strength
164 | T536A | with no effect
165 | T536E | with no effect
166 | T536K | with no effect
167 | S537A | with no effect
168 | S537E | with no effect
169 | S537K | with no effect
170 | L538A | with no effect
171 | L538E | with no effect
172 | L538G | disrupting interaction strength
